B1: Hairpin Ribozyme (parent)
chain: GUCCUCUUUCACGUGCGCGUGAAAGAGAGAAGUGAACCAGAGAAACACACGUUGUGGUAUAUUACCUGGUA

Variants of: B1
Test: self-cleavage, relative activity (ratio to wild type); higher = more cleavage; co-transcriptional
Work on GUCCUCUUUCACGUGCGCGUGAAAGAGAGAAGUGAACCAGAGAAACACACGUUGUGGUAUAUUCCCUGGCA [A64C U70C] yielded a self-cleavage of 0.0963. Work on GUCCUCUUUCACGUGCGCGUGAAAGAGAGAAGUGAACCAGAGAAACACACGUUGUGGUAUAUCACCUGAUA [U63C G69A] yielded a self-cleavage of 0.216. In the case of GUCCUCUUUCACGUGCGCGUGAAAGAGAGAAGUGAACCAGAGAAACACACGUUGUGGUAUAUCACCUGGUA [U63C], the self-cleavage is reported as 0.186. With GUCCUCUUUCACGUGCGCGUGAAAGAGAGAAGUGAACCAGAGAAACACACGUUGUGGUAUAUAACCUGGUA [U63A] the self-cleavage was 0.188. GUCCUCUUUCACGUGCGCGUGAAAGAGAGAAGUGAACCAGAGAAACACACGUUGUGGUAUAUGACCUGGUA [U63G] showed a self-cleavage of 0.171. GUCCUCUUUCACGUGCGCGUGAAAGAGAGAAGUGAACCAGAGAAACACACGUUGUGGUAUAGUACCAGGUA [U62G U67A] gave a self-cleavage of 0.25. For GUCCUCUUUCACGUGCGCGUGAAAGAGAGAAGUGAACCAGAGAAACACACGUUGUGGUAUAUGACCUCGUA [U63G G68C], the self-cleavage was 0.169. Work on GUCCUCUUUCACGUGCGCGUGAAAGAGAGAAGUGAACCAGAGAAACACACGUUGUGGUAUAUUAUCUGGUU [C65U A71U] yielded a self-cleavage of 0.441. For GUCCUCUUUCACGUGCGCGUGAAAGAGAGAAGUGAACCAGAGAAACACACGUUGUGGUAUAUUUCCUGGGA [A64U U70G], the self-cleavage was 0.155. In the case of GUCCUCUUUCACGUGCGCGUGAAAGAGAGAAGUGAACCAGAGAAACACACGUUGUGGUAUAUUAACUGAUA [C65A G69A], the self-cleavage is reported as 0.169. Work on GUCCUCUUUCACGUGCGCGUGAAAGAGAGAAGUGAACCAGAGAAACACACGUUGUGGUAUAUUAACUAGUA [C65A G68A] yielded a self-cleavage of 0.378. Work on GUCCUCUUUCACGUGCGCGUGAAAGAGAGAAGUGAACCAGAGAAACACACGUUGUGGUAUAUUAGCUCGUA [C65G G68C] yielded a self-cleavage of 0.151. For GUCCUCUUUCACGUGCGCGUGAAAGAGAGAAGUGAACCAGAGAAACACACGUUGUGGUAUAUAACCUGCUA [U63A G69C], the self-cleavage was 0.0966. GUCCUCUUUCACGUGCGCGUGAAAGAGAGAAGUGAACCAGAGAAACACACGUUGUGGUAUAUUAUCGGGUA [C65U U67G] gave a self-cleavage of 0.229. GUCCUCUUUCACGUGCGCGUGAAAGAGAGAAGUGAACCAGAGAAACACACGUUGUGGUAUAUUAUCCGGUA [C65U U67C] gave a self-cleavage of 0.209. Work on GUCCUCUUUCACGUGCGCGUGAAAGAGAGAAGUGAACCAGAGAAACACACGUUGUGGUAUAUGGCCUGGUA [U63G A64G] yielded a self-cleavage of 0.134. With GUCCUCUUUCACGUGCGCGUGAAAGAGAGAAGUGAACCAGAGAAACACACGUUGUGGUAUAUCACCUGGUU [U63C A71U] the self-cleavage was 0.191. For GUCCUCUUUCACGUGCGCGUGAAAGAGAGAAGUGAACCAGAGAAACACACGUUGUGGUAUAUCACCUGGUG [U63C A71G], the self-cleavage was 0.328. For GUCCUCUUUCACGUGCGCGUGAAAGAGAGAAGUGAACCAGAGAAACACACGUUGUGGUAUAUAACCUGGAA [U63A U70A], the self-cleavage was 0.0404. Work on GUCCUCUUUCACGUGCGCGUGAAAGAGAGAAGUGAACCAGAGAAACACACGUUGUGGUAUAUCACCUAGUA [U63C G68A] yielded a self-cleavage of 0.192. In the case of GUCCUCUUUCACGUGCGCGUGAAAGAGAGAAGUGAACCAGAGAAACACACGUUGUGGUAUAUCACCUCGUA [U63C G68C], the self-cleavage is reported as 0.133. Variant GUCCUCUUUCACGUGCGCGUGAAAGAGAGAAGUGAACCAGAGAAACACACGUUGUGGUAUAUUAUUUGGUA [C65U C66U] has a self-cleavage of 0.185. GUCCUCUUUCACGUGCGCGUGAAAGAGAGAAGUGAACCAGAGAAACACACGUUGUGGUAUAUUAUAUGGUA [C65U C66A] showed a self-cleavage of 0.172. Variant GUCCUCUUUCACGUGCGCGUGAAAGAGAGAAGUGAACCAGAGAAACACACGUUGUGGUAUAUUCCCUUGUA [A64C G68U] has a self-cleavage of 0.26. Work on GUCCUCUUUCACGUGCGCGUGAAAGAGAGAAGUGAACCAGAGAAACACACGUUGUGGUAUAUUCCCUAGUA [A64C G68A] yielded a self-cleavage of 0.18. GUCCUCUUUCACGUGCGCGUGAAAGAGAGAAGUGAACCAGAGAAACACACGUUGUGGUAUAUCAUCUGGUA [U63C C65U] gave a self-cleavage of 0.131. Work on GUCCUCUUUCACGUGCGCGUGAAAGAGAGAAGUGAACCAGAGAAACACACGUUGUGGUAUAUCAACUGGUA [U63C C65A] yielded a self-cleavage of 0.106. Variant GUCCUCUUUCACGUGCGCGUGAAAGAGAGAAGUGAACCAGAGAAACACACGUUGUGGUAUAUCACCUGGAA [U63C U70A] has a self-cleavage of 0.189. With GUCCUCUUUCACGUGCGCGUGAAAGAGAGAAGUGAACCAGAGAAACACACGUUGUGGUAUAUUAGCCGGUA [C65G U67C] the self-cleavage was 0.183. Work on GUCCUCUUUCACGUGCGCGUGAAAGAGAGAAGUGAACCAGAGAAACACACGUUGUGGUAUAGUACCUUGUA [U62G G68U] yielded a self-cleavage of 0.257. Work on GUCCUCUUUCACGUGCGCGUGAAAGAGAGAAGUGAACCAGAGAAACACACGUUGUGGUAUAUAAACUGGUA [U63A C65A] yielded a self-cleavage of 0.219. GUCCUCUUUCACGUGCGCGUGAAAGAGAGAAGUGAACCAGAGAAACACACGUUGUGGUAUAGUGCCUGGUA [U62G A64G] gave a self-cleavage of 0.166. Work on GUCCUCUUUCACGUGCGCGUGAAAGAGAGAAGUGAACCAGAGAAACACACGUUGUGGUAUAGUCCCUGGUA [U62G A64C] yielded a self-cleavage of 0.2. GUCCUCUUUCACGUGCGCGUGAAAGAGAGAAGUGAACCAGAGAAACACACGUUGUGGUAUAGUUCCUGGUA [U62G A64U] gave a self-cleavage of 0.0808. With GUCCUCUUUCACGUGCGCGUGAAAGAGAGAAGUGAACCAGAGAAACACACGUUGUGGUAUAUUAUCUUGUA [C65U G68U] the self-cleavage was 0.327. For GUCCUCUUUCACGUGCGCGUGAAAGAGAGAAGUGAACCAGAGAAACACACGUUGUGGUAUAUUAUCUCGUA [C65U G68C], the self-cleavage was 0.108. Work on GUCCUCUUUCACGUGCGCGUGAAAGAGAGAAGUGAACCAGAGAAACACACGUUGUGGUAUAUGACCCGGUA [U63G U67C] yielded a self-cleavage of 0.149. In the case of GUCCUCUUUCACGUGCGCGUGAAAGAGAGAAGUGAACCAGAGAAACACACGUUGUGGUAUAUUGCCAGGUA [A64G U67A], the self-cleavage is reported as 0.0458.
